Consider two molecules from publication PMC10154233, “Structure, sequon recognition and mechanism of tryptophan C-mannosyltransferase” (Nature Chemical Biology, 2023).

Square brackets hold non-standard residues; d marks the D form. Pra = C#CC[C@H](N)C(=O)O

Assay [1] has as its target T1, C. elegans DPY19 (CeDPY19), tryptophan C-mannosyltransferase, with a C-terminal FLAG3 tag (C. elegans, UniProt P34413 1-683).
T1 construct: C. elegans DPY19 (CeDPY19), synthetic gene construct; Eluted from the FLAG gel with FLAG peptide; no cleavage of the tag is described; also called CMT
T1 sequence: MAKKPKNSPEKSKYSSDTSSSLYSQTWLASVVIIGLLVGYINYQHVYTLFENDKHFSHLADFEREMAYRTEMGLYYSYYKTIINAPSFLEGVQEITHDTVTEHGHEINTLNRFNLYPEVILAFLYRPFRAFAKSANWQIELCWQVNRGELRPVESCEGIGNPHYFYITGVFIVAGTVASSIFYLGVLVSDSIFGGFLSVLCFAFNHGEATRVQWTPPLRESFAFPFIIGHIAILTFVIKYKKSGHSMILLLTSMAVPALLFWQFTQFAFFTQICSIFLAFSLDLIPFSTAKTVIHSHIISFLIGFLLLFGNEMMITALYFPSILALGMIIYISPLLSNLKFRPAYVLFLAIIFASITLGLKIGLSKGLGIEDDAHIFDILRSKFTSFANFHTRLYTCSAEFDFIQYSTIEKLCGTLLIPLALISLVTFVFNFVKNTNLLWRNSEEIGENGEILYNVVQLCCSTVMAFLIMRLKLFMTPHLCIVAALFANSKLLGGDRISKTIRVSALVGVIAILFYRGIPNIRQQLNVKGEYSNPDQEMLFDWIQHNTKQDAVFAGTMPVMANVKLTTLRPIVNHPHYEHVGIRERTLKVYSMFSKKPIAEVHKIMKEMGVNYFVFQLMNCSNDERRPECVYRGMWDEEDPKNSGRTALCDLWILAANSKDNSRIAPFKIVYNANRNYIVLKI
Description: cryo-EM structure; CeDPY19-CMT2-Fab-anti-Fab Nb complex (35 uM) with 1 mM acceptor peptide WEHI-1886493, 1-2 h on ice. The settings on record: both partners purified.

The target of assay [2] is T2, Biotinylated C. elegans DPY19 (CeDPY19) with a C-terminal Avitag (Caenorhabditis elegans (strain not …, UniProt P34413, biotin (enzymatic, BirA) on the Avitag)).
T2 construct: C. elegans DPY19 (CeDPY19); also called biotinylated CeDPY19; target; not shown: Avitag, C-terminal, kept
Description: ELISA; multipoint protein ELISA; 30 nM biotinylated CeDPY19 immobilised on a neutravidin-coated plate, threefold serial dilutions of purified Fab from 4 uM, 20 min, 4 °C; 20 mM HEPES pH 7.4, 150 mM NaCl, 0.01% LMNG, 0.001% CHS, 0.5% BSA; detected with HRP-protein L. The settings on record: both partners purified.

B1: Synthetic acceptor octapeptide WEHI-1886493 (Ac-Pra-GSWAKWS-NH2) (peptide)
peptide: Ac-[Pra]GSWAKWS-NH2
SMILES: C#CC[C@H](NC(C)=O)C(=O)NCC(=O)N[C@@H](CO)C(=O)N[C@@H](Cc1c[nH]c2ccccc12)C(=O)N[C@@H](C)C(=O)N[C@@H](CCCCN)C(=O)N[C@@H](Cc1c[nH]c2ccccc12)C(=O)N[C@@H](CO)C(N)=O
notes: Eight residues in all: Pra (propargylglycine) followed by GSWAKWS; also called acceptor peptide; source: synthetic peptide
Consider B1, for which, in assay [1], the binding result was “binds”.

B2: CMT2-Fab, synthetic Fab selected by phage display against CeDPY19 (Fab, V domains shown)
VH: EVQLVESGGGLVQPGGSLRLSCAASGFNISSSSIHWVRQAPGKGLEWVASISSSYGYTSYADSVKGRFTISADTSKNTAYLQMNSLRAEDTAVYYCARSSSVYWSWWGYSAFDYWGQGTLVTVSS
VL: DIQMTQSPSSLSASVGDRVTITCRASQSVSSAVAWYQQKPGKAPKLLIYSASSLYSGVPSRFSGSRSGTDFTLTISSLQPEDFATYYCQQGASEPITFGQGTKVEIK
notes: source: E. coli C43 (Pro+), purified (Protein L, Resource S)
One may read the EC50 as the concentration at which the effect is half-maximal. A higher EC50 goes with lower potency in that assay. In assay [2], B2 registered an EC50 of 17 nM.
